{"source": "patent US20040142862A1", "about": "“Methods and compositions for modulating agonist-induced downregulation of G protein-coupled receptors” (The Regents of the University of California, priority 2002, published 2004)", "molecules": {"B1": {"name": "GFP-cGASP1: GFP-tagged version of cGASP1 stably overexpressed in HEK293 cells (protein)", "chain": "SETEEETIFGSWFWDGKEVSEEAGPCCVSKPEDDEEMIVESWFWSRDKAIKETGTVATCESKPENEEGAIVGSWFEAEDEVDNRTDNGSNCGSRTLADEDEAIVGSWFWAGDEAHFESNPSPVFRAICRSTCSVEQEPDPSRRPQSWEEVTVQFKPGPWGRVGFPSISPFRFPKEAASLFCEMFGGKPRNMVLSPEGEDQESLLQPDQPSPEFPFQYDPSYRSVQEIREHLRAKESTEPESSSCNCIQCELKIGSEEFEELLLLMEKIRDPFIHEISKIAMGMRSASQFTRDFIRDSGVVSLIETLLNYPSSRVRTSFLENMIRMAPPYPNLNIIQTYICKVCEETLAYSVDSPEQLSGIRMIRHLTTTTDYHTLVANYMSGFLSLLATGNAKTRFHVLKMLLNLSENLFMTKELLSAEAVSEFIGLFNREETNDNIQIVLAIFENIGNNIKKETVFSDDDFNIEPLISAFHKVEKFAKELQGKTDNQNDPEGDQEN", "modifications": "left off: large carriers; small tags and cut ends", "notes": "GFP-tagged version of cGASP1 stably overexpressed in HEK293 cells"}, "B2": {"name": "cGASP1: carboxyl-terminal fragment of the GASP1 protein, corresponding to the C-terminal 497 residues of GASP1 (protein)", "chain": "B1 chain"}}, "key": {"MOR [1]": {"target": "T1, MOR (Mus musculus, UniProt P42866)", "experiment": "Agonist-induced downregulation of MOR, radioligand binding", "assay_type": "cell-based", "conditions": "10 μM, 3 hours", "from_the_text": "(§1) Agonist-induced downregulation can be determined by any of a variety of methods, including those described herein. For example, cell surface receptors can be measured and/or receptor proteolysis or localization in lysozomes can be determined. Alternatively, receptor downregulation can be determined indirectly by measuring desensitization of receptors after activation with an agonist. Desensitization can be determined, for example, by measuring a biological effect that is mediated by the receptor. (See FIG. 1 for examples of each of these methods.) Generally, it will be most convenient to measure cell surface receptors using a radio- or immunoassay. An exemplary radioligand binding assay useful for determining agonist-induced downregulation is described in Example 1. (See FIG. 1A and Reference 16.) Briefly, cells expressing the cell surface receptor of interest are incubated with a suitable agonist under conditions designed to provide a saturating concentration of agonist over the incubation period. After agonist treatment, the cells are recovered and assayed for radioligand binding. […]\n(§2) (See 18 and 45 for the DOR and MOR expression constructs, respectively.) Cells were then chilled on ice, washed extensively and total opioid radioligand binding sites were determined for each cell line (16). […]"}, "D MOR [2]": {"system": "D MOR", "experiment": "Agonist-induced downregulation of D MOR, radioligand binding", "assay_type": "cell-based", "conditions": "10 μM, 3 hours", "from_the_text": "as §1, §2"}, "D MOR [3]": {"system": "D MOR", "experiment": "Membrane adenylyl cyclase assay, D MOR cells", "assay_type": "cell-based", "procedure": "(§3) 21. Membrane adenylyl cyclase assays were performed as previously described (9)."}, "MOR [4]": {"target": "T1, MOR", "experiment": "Membrane adenylyl cyclase assay, MOR cells", "assay_type": "cell-based", "procedure": "as §3"}, "MOR [5]": {"target": "T1, MOR", "experiment": "Colocalization of MOR with LAMP1 and LAMP2", "assay_type": "cell-based", "conditions": "5 μM, 90 min"}, "[6]": {"target": "epitope (FLAG)-tagged delta opioid receptor (DOR-1), full length, stably expressed in HEK293 cells (UniProt P32300)", "experiment": "co-immunoprecipitation: receptor immunoprecipitated, blotted for GASP1"}, "[7]": {"target": "epidermal growth factor (EGF) receptor (Homo sapiens, UniProt P00533)", "experiment": "EGFR assay, ligand-induced downregulation of EGF receptor", "assay_type": "cell-based", "conditions": "EGF 30 minutes or 3 hours", "procedure": "32. EGFR assay: Cells expressing only endogenous GASP1 and cells overexpressing GFP-cGASP1 (>40×) were grown to 80% confluency and treated with 5 μM EGF in DMEM for the indicated times or left untreated. Cells were washed with PBS, EGF receptor was immunoprecipitated with Rabbit anti EGFR-affinity resin (Santa Cruz Biotechnology), separated by SDS page and immunoblotted with goat anti-EGFR antibodies (Santa Cruz Biotechnology), followed by HRP-conjugated anti-goat secondary (Jackson Immunoresearch) and development with ECL reagents (Amersham)."}, "B2AR-Ala [8]": {"target": "T2, B2AR-Ala (Homo sapiens, UniProt P07550)", "T2 construct": "expressed in transfected cells", "experiment": "Co-immunoprecipitation with B2AR-Ala", "assay_type": "binding", "conditions": "cells stably expressing B2AR-Ala and GFP-cGASP1", "from_the_text": "The ability of GASP1 to bind to the B2AR tail in vitro was initially surprising, since the B2AR recycles efficiently after agonist-induced endocytosis and is relatively resistant to proteolysis in HEK293 cells (35). It has been shown previously that efficient recycling of the B2AR in these cells requires the actin cytoskeleton and a distinct set of protein interactions with the distal tip of the cytoplasmic tail (7). Adding a single alanine residue to the carboxyl terminus of the B2AR specifically disrupts this “recycling protein” interaction, creating a mutant B2AR (B2AR-Ala) that is sorted to lysosomes after agonist-induced endocytosis (7) (and see this study FIG. 5C) much like DOR (FIG. 1B). […] Consistent with this, GFP-cGASP1 co-immunoprecipited with B2AR-Ala (FIG. 5B) (30). Furthermore, overexpression of GFP-cGASP1 inhibited degradation of internalized B2AR-Ala (FIG. 5C), providing evidence for a functional role of the GASP1 protein interaction in lysosomal sorting of a non-opioid GPCR.\n30. Assay for coimmunoprecipitation of cGASP1 with opioid receptors: Cells were grown to confluency, washed 2 times with PBS and lysed in 0.1% Triton X-100, 150 mM NaCl, 25 mM KCl, 10 mM Tris-HCl pH 7.4 containing 1 μM leupeptin, 1 μM pepstatin A, 1 μM aprotinin, 2.5 μM Pefabloc SC, and cell debris was removed by centrifugation at 10,000×g for 10 minutes at 4° C. […]"}, "DOR [9]": {"target": "T3, DOR (Mus musculus, UniProt P32300)", "T3 construct": "co-immunoprecipitated specifically with full length DOR but not with MOR expressed at similar levels; expressed in transfected cells", "experiment": "Biotin protection-degradation assay, endocytosed DOR", "assay_type": "cell-based", "conditions": "cells overexpressing cGASP1 vs DOR alone, agonist 3 hours", "procedure": "(§4) 17. Biotin protection-degradation assay for proteolysis of surface-biotinylated receptors following endocytosis: Cells were grown to 80% confluency washed 2 times with cold phosphate buffered saline (PBS) then incubated in 3 μg/ml cleavable biotin (Pierce) in PBS at 4° C. for 30 minutes with gentle agitation. Cells were washed 2 times with Tris buffered saline and placed back into medium for treatment. Cells labeled “100% biotinylated” were left on ice in PBS. Cells labeled “100% stripped” were also left on ice in PBS then stripped as described below. Cells were treated with 5 μM agonist for 30 minutes or 3 hours, washed 2 times with cold PBS and the remaining cell surface biotinylated receptors were stripped in 50 mM glutathione, 0.3 M NaCl, 75 mM NaOH, 1% fetal bovine serum at 4° C. for 30 minutes. Glutathione was quenched with a 20 minute wash of PBS with 50 mM iodoacetamide, 1% bovine serum albumin. Cells were extracted in 0.1% Triton X-100, 150 mM NaCl, 25 mM KCl, 10 mM Tris-HCl pH 7.4 containing 1 μM leupeptin, 1 μM pepstatin A, 1 μM aprotinin, 2.5 μM Pefabloc SC, and cell debris was removed by centrifugation at 10,000×g for 10 minutes at 4° C. Receptors were immunoprecipitated using M2 antibody (Sigma), rabbit anti mouse linker (Jackson Immunoresearch) and protein A sepharose (Pharmacia) overnight. […]"}, "[10]": {"target": "T4, endogenous GASP1 binding to DOR (Mus musculus, UniProt P32300)", "T4 construct": "co-immunoprecipitated specifically with full length DOR but not with MOR expressed at similar levels; expressed in transfected cells; host or cells: HEK293 stably expressing DOR (GASP1 endogenous)", "experiment": "Competition with endogenous GASP1 for DOR binding in cells (co-immunoprecipitation)", "assay_type": "cell-based", "conditions": "overexpressed approximately 40 fold over endogenous GASP1", "procedure": "30. Assay for coimmunoprecipitation of cGASP1 with opioid receptors: Cells were grown to confluency, washed 2 times with PBS and lysed in 0.1% Triton X-100, 150 mM NaCl, 25 mM KCl, 10 mM Tris-HCl pH 7.4 containing 1 μM leupeptin, 1 μM pepstatin A, 1 μM aprotinin, 2.5 μM Pefabloc SC, and cell debris was removed by centrifugation at 10,000×g for 10 minutes at 4° C. An aliquot of lysate was removed for GASP1 control blot. Lysate was incubated with M2 affinity resin (Sigma) overnight. Pellets were extensively washed and incubated with PNGase (NEB) for 2 hours at 37° C. to degycosylate receptor protein. Samples were eluted in SDS sample buffer. For co-immunoprecipitation with endogenous GASP1, one fourth of eluate was separated by SDS-PAGE on a 12% gel (receptor blot), three quarters on a 7% gel (GASP1 blot). For co-immunoprecipitation with cGASP1 eluate was run on a 12% gel that was later cut and blotted separately for cGASP1 and receptor. Proteins were transferred to nitrocellulose. GASP1 blots were incubated for 2 hours with rabbit anti-GASP1 (1:4000). cGASP1 blots were incubated with rabbit anti-GFP antibodies for 2 hours (1:200) (Clonetech). Both were followed by 1 hour with horseradish peroxidase (HRP)-conjugated anti-rabbit antibody (NEB) (1:3000), and visualized with ECL plus (Amersham). […]"}, "DOR [11]": {"target": "T3, DOR", "experiment": "Agonist-induced downregulation of DOR, radioligand binding", "assay_type": "cell-based", "conditions": "5 μM DADLE 3 hours"}, "B2AR-Ala [12]": {"target": "T2, B2AR-Ala", "experiment": "Biotin protection-degradation assay, endocytosed B2AR-Ala", "assay_type": "cell-based", "conditions": "cells overexpressing cGASP1 vs B2AR-Ala alone, isoproterenol", "procedure": "as §4"}, "cytoplasmic tail of DOR": {"target": "T5, cytoplasmic tail of DOR (Mus musculus, UniProt P32300)", "T5 construct": "GST; made in house", "T5 sequence (P32300 312-371)": "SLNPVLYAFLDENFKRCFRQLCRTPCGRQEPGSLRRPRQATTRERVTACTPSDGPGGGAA", "experiment": "GST affinity chromatography, binding to DOR cytoplasmic tail", "conditions": "in vitro", "procedure": "Sequence homology to a non-mammalian protein was observed between the carboxyl-terminal regions of GASP1 and Vac8p, a yeast protein involved in late endocytic trafficking (26).\n24. Affinity chromatography was carried out as previously described (25)."}, "[13]": {"conditions": "agonist 3 hours, washout, 10 μM naloxone 30 minutes"}}, "note": "“Also recorded” adds a separate entry of the source.", "data": [{"molecule": "CC(C)C[C@@H](NC(=O)[C@H](Cc1ccccc1)NC(=O)CNC(=O)[C@@H](C)NC(=O)[C@@H](N)Cc1ccc(O)cc1)C(=O)O", "note": "[DADLE, Tyr-D-Ala-Gly-Phe-D-Leu]", "values": [{"measurement": "agonist-induced downregulation of MOR (total opioid radioligand binding sites)", "setting": "MOR [1]", "value": "not substantially downregulated"}, {"measurement": "agonist-induced downregulation of D MOR (total opioid radioligand binding sites)", "setting": "D MOR [2]", "value": "significant downregulation"}]}, {"molecule": "C[C@@H](NC(=O)[C@@H](N)Cc1ccc(O)cc1)C(=O)NCC(=O)N(C)[C@@H](Cc1ccccc1)C(=O)NCCO", "note": "[DAMGO]", "values": [{"measurement": "desensitization of D MOR", "setting": "D MOR [3]; 5 μM, 10 minute exposure", "value": "Rapid desensitization"}, {"measurement": "resensitization of D MOR", "setting": "D MOR [3]; [13]", "value": "neither DOR nor D MOR resensitized significantly"}, {"measurement": "desensitization of MOR", "setting": "MOR [4]; 5 μM, 10 minute exposure", "value": "Rapid desensitization"}, {"measurement": "resensitization of MOR", "setting": "MOR [4]; [13]", "value": "recovered their ability to mediate agonist-dependent inhibition of adenylyl cyclase"}, {"measurement": "colocalization of MOR with LAMP after agonist", "setting": "MOR [5]", "value": "not colocalized with LAMP"}]}, {"molecule": "endogenous GASP1 of HEK293 cells", "values": [{"measurement": "percent of endogenous GASP1 immunoprecipitated with DOR", "setting": "[6]", "value": "< 1", "unit": "%"}, {"measurement": "percent of total endogenous GASP1 coimmunoprecipitated with DOR", "setting": "[6]", "value": "< 1", "unit": "%"}]}, {"molecule": "B1", "values": [{"measurement": "effect on downregulation of the EGF receptor", "setting": "[7]", "value": "unaffected"}, {"measurement": "binding to B2AR-Ala in vivo (co-immunoprecipitation)", "setting": "B2AR-Ala [8]", "value": "binds in vivo"}, {"measurement": "stability of endocytosed DOR (post-endocytic proteolysis)", "setting": "DOR [9]", "value": "significantly more stable"}, {"measurement": "competition with endogenous GASP1 for binding to DOR in vivo", "setting": "[10]", "value": "substantially reduced the amount of endogenous GASP1 recovered in DOR immunoprecipitates; also recorded: competes with endogenous GASP1 for binding to DOR in vivo"}]}, {"molecule": "B2", "values": [{"measurement": "effect on agonist-induced downregulation of DOR", "setting": "DOR [11]; cGASP1 overexpressed 30 fold over endogenous GASP1", "value": "less significantly"}, {"measurement": "effect on agonist-induced downregulation of DOR", "setting": "DOR [11]; cGASP1 overexpressed 40-fold over endogenous GASP1", "value": "significantly inhibited"}, {"measurement": "stability of endocytosed B2AR-Ala (post-endocytic proteolysis)", "setting": "B2AR-Ala [12]", "value": "significantly more stable"}, {"measurement": "input recovered on washed GST-DOR", "setting": "cytoplasmic tail of DOR", "value": "3-5%"}]}]}
